In FireProtDB (doi:10.1021/bi00118a013):

B1: Guanyl-specific ribonuclease T1, P00651 (parent)
chain: MMYSKLLTLTTLLLPTALALPSLVERACDYTCGSNCYSSSDVSTAQAAGYQLHEDGETVGSNSYPHKYNNYEGFDFSVSSPYYEWPILSSGDVYSGGSPGADRVVFNENNQLAGVITHTGASGNNFVECT

Variants of: B1
Settings: Aspergillus oryzae (strain ATCC 42149 / RIB 40), pH 7, Fluorescence, MOPS 30 mM, reversible: yes, structure 1RN1, whole UniProt chain shown

Variant	ddG of mutation (higher = less stable) (25 °C, Urea)	denaturant m value (25 °C, Urea)	denaturant midpoint (higher = more stable) (25 °C, Urea)	ddG of mutation (higher = less stable) (50.9 °C, Thermal)	Tm (Thermal)	change of melting temperature, mutant - wild type (higher = more stable) (Thermal)	unfolding enthalpy (van 't Hoff) (Thermal)
S90A	1.44 kcal/mol	1.38 kcal/mol/M	4.11 M	1.56 kcal/mol	–	–	–
Y94F	1.36 kcal/mol	1.32 kcal/mol/M	4.17 M	1.35 kcal/mol	46.9 °C	-4 °C	89 kcal/mol
Y37F	2.11 kcal/mol	1.27 kcal/mol/M	3.56 M	2.03 kcal/mol	44.9 °C	-6 °C	101 kcal/mol
N35A	0.9 kcal/mol	1.28 kcal/mol/M	4.56 M	0.71 kcal/mol	48.8 °C	-2.1 °C	101 kcal/mol
S38A	1.23 kcal/mol	1.28 kcal/mol/M	4.29 M	1.08 kcal/mol	47.7 °C	-3.2 °C	99 kcal/mol
N107A	2.87 kcal/mol	1.44 kcal/mol/M	2.92 M	2.91 kcal/mol	42.3 °C	-8.6 °C	91 kcal/mol
Y82F	0.78 kcal/mol	1.26 kcal/mol/M	4.65 M	0.71 kcal/mol	48.8 °C	-2.1 °C	99 kcal/mol
N62A	-0.03 kcal/mol	1.31 kcal/mol/M	5.31 M	0 kcal/mol	50.9 °C	0 °C	111 kcal/mol
N70A	2.08 kcal/mol	1.3 kcal/mol/M	3.59 M	–	–	–	–
Y83F	0.5 kcal/mol	1.29 kcal/mol/M	4.88 M	0.44 kcal/mol	–	–	–
Y68F	-1.14 kcal/mol	1.17 kcal/mol/M	6.24 M	-1.15 kcal/mol	54.3 °C	3.4 °C	106 kcal/mol
S43A	–	–	–	-0.57 kcal/mol	52.6 °C	1.7 °C	109 kcal/mol
